# Data published in PMC7932925.
# Experiments:
# [1] = target: FLAG-tagged VEGF^121 (WT), a soluble splicing variant of VEGFA; experiment: non-reducing SDS-PAGE and FLAG immunoblot; FLAG-VEGF^121 immunopurified with FLAG-M1 antibody from conditioned media of transfected WT HeLa (and WT MDAMB231^m) cells; reducing against non-reducing immunoblot; disulfide-bonded homodimer against monomer
# [2] = target: FLAG-tagged VEGF^121 (WT), a soluble splicing variant of VEGFA; experiment: non-reducing SDS-PAGE and FLAG immunoblot; FLAG-VEGF^121 immunopurified with FLAG-M1 antibody from conditioned media of transfected ERO1 KO HeLa (and ERO1 KO MDAMB231^m) cells; reducing against non-reducing immunoblot; disulfide-bonded homodimer against monomer
substance,measurement,setting,value
"FLAG-tagged VEGF^121 (WT), a soluble splicing variant of VEGFA (ligand)",stoichiometry N,[1],2
same,monomer as percent of the total secreted VEGF^121,[2],80%
